These results are taken from US20190184015A1, “IRRADIATION TREATMENT OF NEUROLOGICAL SENSATIONS BY PHOTOABLATION” (European Molecular Biology Laboratory, priority 2016, published 2019).

One series addresses TrkC (Homo sapiens, UniProt Q16288). As to the kind of experiment: NGF^SNAP binding to Trk expressing cells.
Another series concerns the target TrkB (Homo sapiens, UniProt Q16620). As to the kind of experiment: NGF^SNAP binding to Trk expressing cells.
In a further series the test system is pain signaling (TrkA). As to the kind of experiment: Mechanical hypersensitivity after injection of the NGF ligand into the paw. The format is in vivo, mouse. The following applies: injected into the paw of mice.
The test system of series [1] is IL31 evoked scratching behavior. Briefly: Scratching during three days of IL31^SNAP-IR700 injection and illumination. As to conditions: injected three consecutive days and skin illuminated.
For the next series, the system named is primary keratinocytes. As to the kind of experiment: In-vitro photo-ablation of primary keratinocytes (propidium iodide staining). The series is classed as cell-based, mouse. The following applies: near infra-red light, 24 hours after. Here is the method:
1 μM IL31^SNAP and 3 μM BG-IR700 were coupled for 1 hour at 37° C. The coupling reaction was applied for 10 minutes at 37° C. on primary wild type and IL31RA^−/− keratinocytes. Cells were then exposed to near infra-red light (680 nm) at 40 J/cm^2 for 2 minutes. 24 hours after light exposure cell death was assessed by Propidium iodide (PI) staining (Invitrogen #P3566) and cells were imaged with an epifluorescent microscope.

In series [2] the test system is IL31 receptor expressing cells. As to the kind of experiment: In-vivo photo-ablation of skin, TUNEL assay. Also noted: species or system mouse. As to conditions: IL31RA^−/− mice; injection and near infrared light.
The next series deals with IL31RA expressing cells. As to the kind of experiment: Cell type specificity of photo-ablation in skin. The format is in vivo.
Series [3] deals with Calcipotriol model of atopic dermatitis. Briefly: Calcipotriol model of atopic dermatitis.
The next series deals with mechanical sensitivity. As to the kind of experiment: Von Frey test after photoablation in the hind paw. The format is in vivo, mouse. As for the experimental part:
Mice were habituated on an elevated platform with a mesh floor for 30 minutes. The plantar side of the hind paw was stimulated with calibrated von-Frey filaments (North coast medical #NC12775-99) to assess baseline levels of mechanical sensitivity. The stimulation was then repeated at the 3rd day after the last photoablation performed on the same paw considered for the baseline. As a control group, the animals were injected but not illuminated. The 50% paw withdrawal thresholds were calculated using the Up-Down method (26).

A further series concerns thermal sensitivity. As to the kind of experiment: Hot plate test after photoablation in the hind paw. The series is classed as in vivo, mouse. Here is the method:
Mice were injected for three consecutive days with […] coupled with BG-IR700 with or without near IR light illumination. 3 days after the last injection, mice were placed on top of a hot plate (Ugo Basile #35150) that was preset to 52° C. and the latency to response as distinguished by flicking or licking of the hind paw was observed. In order to avoid injury to the mice, a cutoff of 30 seconds was set.
(In general: Thermal pain tests record how soon the animal reacts.)

Series [4] relates to acute itch evoked by IL31, histamine, chloroquine or LY344864. As to the kind of experiment: Pruritogen evoked scratching after photoablation. The format is in vivo, mouse. As for the experimental part: To characterize IL31^K138A-SNAP mediated photoablation in vivo, the inventors first tested its efficacy at alleviating IL31 provoked itch. Mice were treated for three consecutively days with IL31^K138A-SNAP-IR700 and the skin was illuminated with near-IR light. Strikingly, IL31-induced scratching behavior was abolished in these animals (FIG. 2f), and this persisted throughout an 8 week observation period (Supplementary FIG. 2l). […] The inventors next tested the effects of photoablation on scratching provoked by other acutely applied pruritogens. […] Finally, to assess the specificity of photoablation to itch sensation, the inventors examined other sensory modalities after treatment.

Series [5] has as its target T1, native TrkB receptors in DRG neurons (Mus musculus, UniProt P15209).
T1 construct: whether BDNF^SNAP would recognize native TrkB receptors in DRG neurons; endogenous in cells; host or cells: dissociated dorsal root ganglion neurons from TrkBCreERT2::Rosa26RFP mice
As to the kind of experiment: BDNF^SNAP Qdot 655 labelling of dissociated DRG. The format is binding. The following applies: conjugated to Qdot 655; dissociated DRG from TrkBCreERT2::Rosa26RFP mice. The source says: The inventors further tested whether BDNF^SNAP would recognize native TrkB receptors in DRG neurons.

Another series deals with T2, TrkB/p75 (Homo sapiens, UniProt Q16620).
T2 construct: expressed in transfected cells; host or cells: HEK293T
As to the kind of experiment: BDNF^SNAP labelling of transfected HEK293T cells. The series is classed as binding. The following applies: labelled with SNAP-Surface647. The source says: (§1) In light of the clinical importance of mechanical allodynia in neuropathic pain patients, it was sought to develop a pharmacological strategy to exploit the striking selectivity of TrkB to the peripheral neurons which provoke this pain state. It was reasoned that BDNF, the ligand for TrkB, may give access to these neurons and allow for their manipulation in wildtype, non-transgenic animals. To this end the inventors produced a recombinant BDNF protein with a SNAP-tag fused to its C-terminus that would enable its chemical derivatization. BDNF^SNAP was labelled in vitro with fluorescent SNAP-Surface647 substrate and applied to HEK293T cells expressing neurotrophin receptors.

The target of the next series is T3, TrkC/p75 (Homo sapiens, UniProt Q16288).
T3 construct: expressed in transfected cells; host or cells: HEK293T
Briefly: BDNF^SNAP labelling of transfected HEK293T cells. The series is classed as binding. As to conditions: labelled with SNAP-Surface647.
Excerpt: as §1

The target in a further series is T4, TrkA/p75 (Homo sapiens, UniProt P04629).
T4 construct: expressed in transfected cells; host or cells: HEK293T
As to the kind of experiment: BDNF^SNAP labelling of transfected HEK293T cells. The series is classed as binding. The following applies: labelled with SNAP-Surface647.
Excerpt: as §1

[6] abbreviates: prevention: injection and near IR illumination 3 days prior to Calcipotriol.
Where [7] appears, read: rescue: subcutaneous injection and near IR light after 7 days Calcipotriol.
Setting [8] is: topical application in water-in-oil micro-emulsion, near IR light.
Where [9] appears, read: after photoablation with near-IR light.

Numbering of substitutions follows the chain as printed. In names and notes the source's numbering stands. Entries after “also recorded” stand apart in the source; their conditions may differ.

T3 sequence (Q16288 32-839, species assumed): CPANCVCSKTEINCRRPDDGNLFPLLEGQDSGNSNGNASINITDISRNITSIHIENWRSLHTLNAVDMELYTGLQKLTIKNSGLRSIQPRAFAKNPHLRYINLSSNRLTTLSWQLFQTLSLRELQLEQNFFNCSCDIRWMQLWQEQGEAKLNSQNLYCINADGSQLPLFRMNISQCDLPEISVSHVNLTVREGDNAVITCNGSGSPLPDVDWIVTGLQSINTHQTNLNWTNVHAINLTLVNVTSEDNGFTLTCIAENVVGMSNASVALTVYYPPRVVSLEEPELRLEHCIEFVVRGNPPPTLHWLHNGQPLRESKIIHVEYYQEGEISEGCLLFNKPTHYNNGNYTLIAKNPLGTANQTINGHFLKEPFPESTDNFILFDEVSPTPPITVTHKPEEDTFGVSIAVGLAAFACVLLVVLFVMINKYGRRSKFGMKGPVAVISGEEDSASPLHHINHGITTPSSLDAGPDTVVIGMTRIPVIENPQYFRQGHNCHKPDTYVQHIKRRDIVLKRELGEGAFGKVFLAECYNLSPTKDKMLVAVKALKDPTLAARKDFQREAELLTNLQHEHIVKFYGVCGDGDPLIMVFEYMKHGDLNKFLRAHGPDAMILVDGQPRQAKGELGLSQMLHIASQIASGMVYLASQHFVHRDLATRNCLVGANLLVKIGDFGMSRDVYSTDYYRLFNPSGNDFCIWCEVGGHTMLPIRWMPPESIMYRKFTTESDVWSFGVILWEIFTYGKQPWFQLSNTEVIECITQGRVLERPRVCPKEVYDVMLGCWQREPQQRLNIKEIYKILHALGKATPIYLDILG
TrkC, sequence (Q16288 32-839, species assumed): as above
T4 sequence (P04629 33-796, species assumed): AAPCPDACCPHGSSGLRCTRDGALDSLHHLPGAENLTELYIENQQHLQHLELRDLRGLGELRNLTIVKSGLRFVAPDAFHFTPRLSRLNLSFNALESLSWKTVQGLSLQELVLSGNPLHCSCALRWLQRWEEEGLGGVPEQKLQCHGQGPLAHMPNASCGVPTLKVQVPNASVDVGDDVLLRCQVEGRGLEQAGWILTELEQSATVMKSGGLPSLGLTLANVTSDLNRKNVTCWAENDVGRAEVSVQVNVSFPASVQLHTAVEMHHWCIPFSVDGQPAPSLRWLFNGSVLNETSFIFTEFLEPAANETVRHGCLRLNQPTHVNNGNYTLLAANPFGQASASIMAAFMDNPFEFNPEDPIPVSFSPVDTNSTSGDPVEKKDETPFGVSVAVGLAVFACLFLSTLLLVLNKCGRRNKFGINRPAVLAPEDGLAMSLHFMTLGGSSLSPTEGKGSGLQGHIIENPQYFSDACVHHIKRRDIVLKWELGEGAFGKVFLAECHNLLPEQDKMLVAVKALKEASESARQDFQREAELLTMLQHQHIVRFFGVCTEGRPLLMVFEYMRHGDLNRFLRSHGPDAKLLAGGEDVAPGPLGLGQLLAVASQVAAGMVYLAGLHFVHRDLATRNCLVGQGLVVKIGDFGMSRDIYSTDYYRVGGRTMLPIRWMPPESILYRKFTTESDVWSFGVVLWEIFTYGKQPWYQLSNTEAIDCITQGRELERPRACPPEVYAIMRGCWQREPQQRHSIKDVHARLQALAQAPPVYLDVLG
T2 sequence (Q16620 32-822, species assumed): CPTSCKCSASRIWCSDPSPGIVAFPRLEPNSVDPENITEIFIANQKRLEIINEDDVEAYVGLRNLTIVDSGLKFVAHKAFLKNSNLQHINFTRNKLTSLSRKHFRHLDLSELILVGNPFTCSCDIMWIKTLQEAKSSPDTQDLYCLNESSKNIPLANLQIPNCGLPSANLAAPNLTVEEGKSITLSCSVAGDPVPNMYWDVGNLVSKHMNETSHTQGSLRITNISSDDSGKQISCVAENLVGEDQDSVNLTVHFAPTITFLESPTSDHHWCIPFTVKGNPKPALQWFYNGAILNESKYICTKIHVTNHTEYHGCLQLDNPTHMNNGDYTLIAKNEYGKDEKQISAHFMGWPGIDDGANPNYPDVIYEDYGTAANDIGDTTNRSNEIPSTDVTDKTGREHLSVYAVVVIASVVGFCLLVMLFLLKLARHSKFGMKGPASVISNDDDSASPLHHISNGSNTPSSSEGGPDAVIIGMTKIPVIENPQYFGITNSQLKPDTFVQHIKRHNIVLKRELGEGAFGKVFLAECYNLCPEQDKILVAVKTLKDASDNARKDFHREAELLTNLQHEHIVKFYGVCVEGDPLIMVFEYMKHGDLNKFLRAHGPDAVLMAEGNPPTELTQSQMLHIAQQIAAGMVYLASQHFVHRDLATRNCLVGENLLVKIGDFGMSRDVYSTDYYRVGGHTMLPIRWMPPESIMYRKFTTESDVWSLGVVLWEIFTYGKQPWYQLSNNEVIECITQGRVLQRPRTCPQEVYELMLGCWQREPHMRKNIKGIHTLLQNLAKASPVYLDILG
TrkB, sequence (Q16620 32-822, species assumed): as above
T1 sequence (P15209 32-821): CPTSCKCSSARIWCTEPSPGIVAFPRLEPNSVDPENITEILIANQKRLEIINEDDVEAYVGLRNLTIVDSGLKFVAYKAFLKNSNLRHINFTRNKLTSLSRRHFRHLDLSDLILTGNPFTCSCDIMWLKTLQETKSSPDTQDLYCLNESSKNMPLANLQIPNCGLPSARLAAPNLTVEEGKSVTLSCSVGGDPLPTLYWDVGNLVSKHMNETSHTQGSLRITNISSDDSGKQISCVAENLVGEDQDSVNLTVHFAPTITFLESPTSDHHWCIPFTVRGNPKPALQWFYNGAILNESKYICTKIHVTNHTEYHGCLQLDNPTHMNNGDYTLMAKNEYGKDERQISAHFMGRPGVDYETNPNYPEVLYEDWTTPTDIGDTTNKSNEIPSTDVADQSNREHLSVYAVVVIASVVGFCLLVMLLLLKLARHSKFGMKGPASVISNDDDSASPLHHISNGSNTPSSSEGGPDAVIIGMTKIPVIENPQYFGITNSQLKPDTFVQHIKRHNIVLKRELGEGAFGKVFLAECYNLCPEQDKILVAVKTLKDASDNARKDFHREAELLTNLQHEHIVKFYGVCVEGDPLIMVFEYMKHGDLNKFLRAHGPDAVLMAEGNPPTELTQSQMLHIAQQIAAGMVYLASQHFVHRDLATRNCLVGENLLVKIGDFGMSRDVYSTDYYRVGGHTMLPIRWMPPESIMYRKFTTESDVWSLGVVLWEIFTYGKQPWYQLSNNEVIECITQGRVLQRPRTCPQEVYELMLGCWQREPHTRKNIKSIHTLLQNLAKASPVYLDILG

NGF^SNAP: recombinant NGF^SNAP protein: the “binding to TrkC cells” value with TrkC is “not TrkB or TrkC”. In addition, the “binding to TrkB cells” value with TrkB is “not TrkB or TrkC”. Moreover, in the series on pain signaling (TrkA), the “mechanical hypersensitivity provoked by the ligand” value is “strong sensitizing effect; also recorded: induces mechanical hypersensitivity”.

B1: IL31^SNAP-IR700: IL31^SNAP conjugated in vitro to benzylguanine modified IRDye®700DX phthalocyanine (conjugate)
chain: TCSLSFGAPISKEDLRTTIDLLKQESQDLYNNYSIKQASGMSADESIQLPCFSLDREALTNISVIIAHLEKVKVLSENTVDTSWVIRWLTNISCFNPLNLNISVPGNTDESYDCKVFVLTVLKQFSNCMAELQAKDNTTC
modifications: left off: small tags and cut ends
notes: IL31^SNAP conjugated in vitro to benzylguanine modified IRDye®700DX phthalocyanine
In the case of B1, in [1], the scratching bouts entry is on record as “progressive decrease in scratching bouts”. Moreover, the “cell death after illumination” value with primary keratinocytes (IL31RA^−/− keratinocytes) is “not evident”; in the series with primary keratinocytes (wild type keratinocytes) it was “substantial cell death”. Further, the “TUNEL positive apoptotic cells in skin” value in series [2] is reported as “largely absent”.

B2: IL31^K138A-SNAP-IR700 (conjugate)
chain: B1 chain with K115A
modifications: left off: small tags and cut ends
For B2, the “effect of photo-ablation on other cell types” value in the series with IL31RA expressing cells was “does not affect other cell types such as keratinocytes or epidermal Langerhans cells”. In series [3] (prevention: identical experiments in the absence of near IR illumination), the “development of dermatitis-like symptoms” value is recorded as “normal development of dermatitis-like symptoms”. Moreover, in series [3] (setting [6]), the “development of atopic dermatitis-like indicators” value is recorded as “completely abolished the development of all indicators”; the scratching behavior entry is “remained at baseline levels”; the skin appearance entry is “skin appeared healthy and typical features of dermatitis such as redness and scaling were entirely absent”. Moreover, in series [3] (rescue: after 7 days Calcipotriol, subcutaneous injection and near IR light three days, over the course of 1 week), the “disease indicators of established dermatitis” value is on record as “rescue of all disease indicators”. Further, in [3] (setting [7]), the scratching behavior entry was “returned to baseline levels”; the “skin thickness, morphology and structure” value is on record as “became indistinguishable from healthy mice”. For the same molecule, in series [3] (rescue: without subsequent near IR illumination (control)), the “reversal of dermatitis-like symptoms” value is “not evident”. For the same molecule, in series [3] (setting [8]), the scratching behavior entry is recorded as “return to baseline levels of scratching behavior”; the “skin structure and histology” value is “normalization of skin structure and histology”. The “Calcipotriol provoked dermatitis-like symptoms” value in series [3] (topical application in water-in-oil micro-emulsion, near IR light 20 minutes later) is “both prevented and reversed Calcipotriol provoked dermatitis-like symptoms”. Moreover, the “mechanical sensitivity (von Frey filaments)” value in the series on mechanical sensitivity is reported as “no difference in response properties”. In the series on thermal sensitivity, the “thermal sensitivity (hot plate test)” value is recorded as “no difference in response properties”. In series [4] (setting [9]), the LY344864 evoked itch result was “no significant effect”, the chloroquine evoked itch entry was “no significant effect” and the histamine evoked itch result is given as “no significant effect”. Moreover, the IL31-evoked scratching entry in series [4] (injected but not illuminated (control)) was “no reduction in IL31-evoked scratching”. The IL31-induced scratching behavior result in series [4] (three consecutive days treatment with near-IR light) was “abolished”. Besides, the “persistence of abolished IL31-induced scratching” value in [4] (with near-IR light, observation period) was no less than 8 week.

B3: BDNF^SNAP: recombinant BDNF protein with a SNAP-tag fused to its C-terminus (protein, UniProt P23560 19-247, looked up)
Neurotrophic factor BDNF …: APMKEANIRGQGGLAYPGVRTHGTLESVNGPKAGSRGLTSLADTFEHVIEELLDEDQKVRPNEENNKDADLYTSRVMLSSQVPLEPPLLFLLEEYKNYLDAANMSMRVRRHSDPARRGELSVCDSISEWVTAADKKTAVDMSGGTVTVLEKVPVSKGQLKQYFYETKCNPMGYTKEGCRGIDKRHWNSQCRTTQSYVRALTMDSKKRIGWRFIRIDTSCVCTLTIKRGR
modifications: C-terminal SNAP tag
notes: recombinant BDNF protein with a SNAP-tag fused to its C-terminus
On to B3, for which the “overlap between BDNF^SNAP and TrkBCreERT2 positive cells” value in series [5] is on record as greater than 95%. For the same molecule, in the series with TrkB/p75, the “binding to HEK293T cells expressing TrkB/p75” value was “remarkable selectivity for its cognate receptor complex TrkB/p75”. In addition, in the series with TrkC/p75, the “binding to HEK293T cells expressing TrkC/p75” value was “did not bind”. The “binding to HEK293T cells expressing TrkA/p75” value with TrkA/p75 was “did not bind”.
